Laboratory results reported in paper PMC4227728.

How the values were obtained:
[1] = target: ErbB2 (as used in the ErbB2 ELISA of the Fab mutants) (human) (UniProt P04626); assay: ELISA
[2] = target: ErbB2 ECD labeled with an infrared dye (human) (UniProt P04626); assay: cross-linking

Substance | fold reduction of binding against the WT Fab [1] | percent of ErbB2 ECD cross-linked [2]
Herceptin Fab-AcrK103 | 20 fold | 
Herceptin Fab-VSF92 |  | 80%
